# Results published in paper PMC7255509, “Crystal structure of the catalytic C‐lobe of the HECT‐type ubiquitin ligase E6AP” (Protein Science : A Publication of the Protein Society, 2020).
# B1: C-lobe of the catalytic (HECT) domain of E6AP (domain or fragment, UniProt Q05086-2 741-852, looked up)
# chain: NLDFQALEETTEYDGGYTRDSVLIREFWEIVHSFTDEQKRLFLQFTTGTDRAPVGGLGKLKMIIAKNGPDTERLPTSHTCFNVLLLPEYSSKEKLKERLLKAITYAKGFGML
# notes: E6AP (UBE3A), HECT-type ubiquitin ligase, C-lobe of the catalytic domain, residues 741-852; catalytic Cys820; numbers count on: isoform 1 (ends at residue 852); Cleavage by 3C protease may leave a few residues of the vector at the N-terminus; In the crystal the two Cys820 are read as partly joined by an intermolecular disulfide; also called E6AP C-lobe; C-terminal lobe of E6AP; source: E. coli …
# Target: the molecule itself
# Assay: crystal structure; crystallised at >=30 mg/ml (crystal used: 60 mg/ml), 20°C, sitting drops, 0.1 M calcium chloride, 0.1 M sodium acetate pH 4.6, 30% PEG400; 1.3 Å; dimer of two symmetry-related molecules
protein,measurement,value
B1,stoichiometry N,2
